Measured values: patent publication US20240263208A1, “CYTOCHROME P450 ENZYME” (HYPHA DISCOVERY LTD., priority 2021, published 2024)
Substitutions are numbered along the chain they refer to. Names and notes keep the numbering of the source.

B1: SeuC10M9: P450SeuC10 with L198A mutation, SEQ ID NO: 22 (protein)
chain: MKIGTTHLTRLRGLSMTELTDITGPAAQAETVAFPQDRTCPYHPPTGYDPLRDGRPLSRVTLYDGREVWLVTAQATARALLADPRLSTDRRRDGFPVPTPRFAAGRDRTLALLGLDDPEHHRQRRLLIPSFTLKRATAQRPWIQRIVDELLDAMIARGPVADLVSAFALPVPSMVICELLGVPYADHEFFEEQSRRLARGPTGADTTDARDRLEAYLGDLIDAKAKEAEPGDGILDDLVHNRLRAGELDRSVLVSLAVILLVAGHETTANMISLGTYTLLQHPERLAELRADPSLLPAVVEELLRMLSIAEGLQRLALEDIEIDGITIRAGEGVLFSTSVINRDTAVYEDPDDLDFHRADRHHVAFGFGIHQCLGQNLARAELEIALGSLFTRLPGLRLAAPAEEIPFKPGDTVQGMLELPVTW
modifications: SeuC10M9
B2: M52: P450SeuC10 with T109D mutation, SEQ ID NO: 122 (protein)
chain: B1 chain with T109D, A198L
modifications: SeuC10M52
B3: M15: P450SeuC10 with L198T mutation, SEQ ID NO: 34 (protein)
chain: B1 chain with A198T
modifications: SeuC10M15
B4: SeuC10M13: P450SeuC10 with L198F mutation, SEQ ID NO: 30 (protein)
chain: B1 chain with A198F
modifications: SeuC10M13
B5: M32: P450SeuC10 with T109F and I259L double mutations, SEQ ID NO: 130 (protein)
chain: B1 chain with T109F, A198L, I259L
modifications: SeuC10M32
B6: M31: P450SeuC10 with T109F and I259A double mutations, SEQ ID NO: 128 (protein)
chain: B1 chain with T109F, A198L, I259A
modifications: SeuC10M31

How the values were obtained:
Assay type in all cases: biochemical
[1] = Oxidase activity testing against ebastine; settings: for Average % conversion: substrate Ebastine
Procedure: (§1) Lyophilised material of recombinant P450, ferredoxin and ferredoxin reductase proteins was made as described in Example 4 and reconstituted in high purity water to the original volume. Biocatalysis was performed with shaking incubation at 27° C. in the following conditions: 100 mM potassium phosphate pH 8.0, 5 mM MgCl2 (both present in the reconstituted enzyme preparation) and 0.1 mg/ml substrate compound such as ambroxide (Sigma-Aldrich, UK), carbamazepine (Sigma-Aldrich, UK), diclofenac (Sigma-Aldrich, UK), tivantinib (MedChemtronica, Sweden), clarithromycin (Tokyo Chemical Industry, Japan), sclareol (Sigma-Aldrich, UK), celecoxib (LC Laboratories, USA), buparvaquone (Sigma-Aldrich, UK), BIRB796 (MedChemExpress, USA), vanoxerine (CiVentiChem, USA), valsartan (Tokyo Chemical Industry, Japan), ruxolitinib (LC Laboratories, USA), perindopril (Selleckchem, USA), solifenacin (Key Organics, UK), 7-ethoxycoumarin (Tokyo Chemical Industry, Japan), tofacitinib (LC Laboratories, USA), ebastine (Key Organics, UK), efavirenz (Key Organics, UK), propanalol (Sigma-Aldrich, UK) and tolbutamide (Key Organics, UK).
(§2) Concentrations of P450, ferredoxin and ferredoxin reductase were as extracted (Example 4). Reactions were initiated by addition of 10× stock of cofactor mixture (50 mM G6P, 10 mM NADP+, 10 UN/ml G6PDH) to provide a final volume of e.g., 10 μl to 90 μl for 100 μl total reaction volumes. After 16-20 hours, reactions were extracted with an equal volume of acetonitrile, centrifuged to remove precipitated proteins and conversion assessed by UPLC-MS analysis.
(§3) UPLC Data were Obtained as Follows: • Column: Acquity UPLC BEH Shield RP18 1.7 μm 2.1 mm i.d. 50 mm length • Solvents: H2O, B: Acetonitrile, both with 0.1% Formic acid • Flow rate: 1.0 ml/min • Detector: Waters Acquity UPLC PDA (UV-Vis detection) and Waters Acquity UPLC QDA (MS)
(§4) Representative results for the % conversions of various substrates to products by enzymes with mutations at position T109 or L198 and double mutants at T109 and 1129/L198 are shown in Table 4 below.

[2] = Oxidase activity testing against perindopril; settings: substrate Perindopril
Procedure: as §1, §2, §3, §4

[3] = Oxidase activity testing against carbamazepine; settings: for +16 Da (1.18 min) 253 m/z: 2-hydroxycarbamazepine; for +16 Da (1.18 min) 253 m/z / +16 Da (1.14 min) 253 m/z / Parent (1.31 min) 237 m/z: relative MS peak area; for +16 Da (1.14 min) 253 m/z: carbamazepine epoxide; for reaction products from carbamazepine (in words): new product at 1.18 minutes identified as 2-hydroxycarbamazepine, epoxide at 1.14 minutes; for Parent (1.31 min) 237 m/z: remaining carbamazepine, 0.1 mg/ml, 27° C., 16-20 hours; for Average % conversion: substrate carbamazepine, relative MS peak areas
Procedure: as §1, §2, §3
To confirm the identities of reaction products where known, their chromatographic retention time, mass and ultraviolet spectra were compared with those of authentic metabolite standards.
Representative results for the % conversions of carbamazepine to oxidised (+16 Da) products for single point mutants at position L198 are shown in Table 3 below.

[4] = Oxidase activity testing against 7-ethoxycoumarin; settings: substrate 7-ethoxycoumarin
Procedure: as §1, §2, §3, §4

[5] = Oxidase activity testing against vanoxerine; settings: for Average % conversion: substrate Vanoxerine
Procedure: as §1, §2, §3, §4

[6] = Oxidase activity testing against clarithromycin; settings: for Average % conversion: substrate Clarithromycin; for new product at 3.12 minutes (3″-O-demethylclarithromycin) from clarithromycin: chromatographic analysis, FIGS. 5 and 6
Procedure: as §1, §2, §3, §4

[7] = Oxidase activity testing against tofacitinib; settings: substrate Tofacitinib
Procedure: as §1, §2, §3, §4

[8] = Oxidase activity testing against sclareol; settings: for Average % conversion: substrate Sclareol, UPLC-MS UV or MS peak areas
Procedure: as §1, §2, §3, §4

[9] = Oxidase activity testing against propanalol; settings: for Average % conversion: substrate Propanalol
Procedure: as §1, §2, §3, §4

[10] = Oxidase activity testing against celecoxib; settings: substrate Celecoxib
Procedure: as §1, §2, §3, §4

[11] = Oxidase activity testing against efavirenz; settings: for Average % conversion: substrate Efavirenz
Procedure: as §1, §2, §3, §4

[12] = Oxidase activity testing against ruxolitinib; settings: substrate Ruxolitinib
Procedure: as §1, §2, §3, §4

[13] = Oxidase activity testing against buparvaquone; settings: substrate Buparvaquone
Procedure: as §1, §2, §3, §4

[14] = Oxidase activity testing against valsartan; settings: for Average % conversion: substrate Valsartan
Procedure: as §1, §2, §3, §4

[15] = Oxidase activity testing against tolbutamide; settings: substrate Tolbutamide
Procedure: as §1, §2, §3, §4

[16] = Oxidase activity testing against BIRB796; settings: substrate BIRB796
Procedure: as §1, §2, §3, §4

[17] = Oxidase activity testing against solifenacin; settings: substrate Solifenacin
Procedure: as §1, §2, §3, §4

Row | Molecule | Average % conversion ([1]; Batch 1) | Average % conversion ([2]; Batch 1) | +16 Da (1.18 min) 253 m/z [3] | Average % conversion ([1]; Batch 2) | Average % conversion ([2]; Batch 2) | Average % conversion ([4]; Batch 2) | Average % conversion ([5]; Batch 2) | Average % conversion ([6]; Batch 2) | Average % conversion ([7]; Batch 2) | Average % conversion ([8]; Batch 2) | Average % conversion ([9]; Batch 2) | Average % conversion ([10]; Batch 2) | Average % conversion ([11]; Batch 2) | Average % conversion ([12]; Batch 2) | Average % conversion ([13]; Batch 2) | Average % conversion ([14]; Batch 2) | Average % conversion ([15]; Batch 2) | Average % conversion ([16]; Batch 2) | Average % conversion ([17]; Batch 2) | new product at 3.12 minutes (3″-O-demethylclarithromycin) from clarithromycin [6] | further results
1 | B1 | 25.1% | 15.7% | 1.1% |  |  |  |  |  |  |  |  |  |  |  |  |  |  |  |  |  | conversion of ebastine compared to wild-type (in words) [1]: significantly increased conversion; +16 Da (1.14 min) 253 m/z [3]: 15.8%; reaction products from carbamazepine (in words) [3]: produce a new product; Parent (1.31 min) 237 m/z [3]: 83.1%; Average % conversion [3]: 16.9%; Average % conversion ([4]; Batch 1): 10.7%; Average % conversion ([5]; Batch 1): 23%; Average % conversion ([6]; Batch 1): 0%; Average % conversion ([7]; Batch 1): 6.2%; conversion of sclareol compared to wild-type (in words) [8]: significantly increased conversion; Average % conversion ([8]; Batch 1): 75.2%; Average % conversion ([9]; Batch 1): 0%; Average % conversion ([10]; Batch 1): 2.6%; Average % conversion ([11]; Batch 1): 3.1%; Average % conversion ([12]; Batch 1): 55.1%; Average % conversion ([13]; Batch 1): 1.2%; Average % conversion ([14]; Batch 1): 6.9%; Average % conversion ([15]; Batch 1): 14.7%; Average % conversion ([16]; Batch 1): 10%; Average % conversion ([17]; Batch 1): 0.8%
2 | B2 |  |  |  | 3.1% | 37.9% | 17.3% | 65% | 1% | 38.2% | 25.4% | 0% | 29.7% | 0% | 87.7% | 24.8% | 16.1% | 26.3% | 13% | 17.2% |  | 
3 | B3 |  |  |  | 0.5% | 35.4% | 14.7% | 41% | 0% | 32.3% | 61% | 0% | 7.2% | 4.3% | 100% | 0% | 20.9% | 28.3% | 34.4% | 6% | not observed | 
4 | B4 | 14.7% | 38.2% | 3.1% |  |  |  |  |  |  |  |  |  |  |  |  |  |  |  |  |  | +16 Da (1.14 min) 253 m/z [3]: 42.3%; reaction products from carbamazepine (in words) [3]: produce a new product; Parent (1.31 min) 237 m/z [3]: 54.6%; Average % conversion [3]: 45.4%; Average % conversion ([4]; Batch 1): 31.2%; Average % conversion ([5]; Batch 1): 29.4%; Average % conversion ([6]; Batch 1): 0%; Average % conversion ([7]; Batch 1): 32.2%; Average % conversion ([8]; Batch 1): 41.3%; Average % conversion ([9]; Batch 1): 0%; Average % conversion ([10]; Batch 1): 26.8%; Average % conversion ([11]; Batch 1): 0%; Average % conversion ([12]; Batch 1): 98.1%; Average % conversion ([13]; Batch 1): 39.1%; Average % conversion ([14]; Batch 1): 12%; Average % conversion ([15]; Batch 1): 27.9%; Average % conversion ([16]; Batch 1): 54.6%; Average % conversion ([17]; Batch 1): 0.8%
5 | B5 |  |  |  | 10.4% | 45.6% | 20.2% | 88.8% | 23.3% | 40.8% | 84.5% | 1.6% | 35.6% | 1.2% | 99.2% | 31.5% | 66.8% | 56.1% | 90.6% | 25.9% | production of a new product | conversion of vanoxerine compared to wild-type (in words) [5]: significantly increased conversion; conversion of clarithromycin, not converted by wild-type (in words) [6]: achieved conversion; conversion of sclareol compared to wild-type (in words) [8]: significantly increased conversion; product at 1.42 minutes from sclareol ([8]; FIG. 7): increased production; product at 1.55 minutes from sclareol ([8]; FIG. 7): generated a new product; conversion of propanalol, not converted by wild-type (in words) [9]: achieved conversion; conversion of efavirenz, not converted by wild-type (in words) [11]: achieved conversion; conversion of valsartan compared to wild-type (in words) [14]: significantly increased conversion
6 | B6 |  |  |  | 0% | 14.6% | 2.9% | 11.4% | 0.7% | 8.2% | 1.3% | 0% | 0.4% | 4.1% | 46.9% | 0% | 0.6% | 2.9% | 0% | 2.2% | not observed | 
